The values below come from patent US20020197702.

Series [1] has as its target T1, DEVD-amc (Acetyl-Asp-Glu-Val-Asp-aminomethylcoumarin).
T1 chain: DEVD

For series [2], the target named is T2, membrane derived procaspase-3, P42574.
T2 chain: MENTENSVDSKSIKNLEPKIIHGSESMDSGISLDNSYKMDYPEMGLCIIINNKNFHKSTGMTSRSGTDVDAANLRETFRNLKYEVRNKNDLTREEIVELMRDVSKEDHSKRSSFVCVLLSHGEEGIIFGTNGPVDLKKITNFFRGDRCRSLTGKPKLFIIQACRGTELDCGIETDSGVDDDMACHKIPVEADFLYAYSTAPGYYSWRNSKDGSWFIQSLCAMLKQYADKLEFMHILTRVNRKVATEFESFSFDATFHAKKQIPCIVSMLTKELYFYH

B1: r-caspase-3 (His)6 (protein)
chain 1: SGISLDNSYKMDYPEMGLCIIINNKNFHKSTGMTSRSGTDVDAANLRETFRNLKYEVRNKNDLTREEIVELMRDVSKEDHSKRSSFVCVLLSHGEEGIIFGTNGPVDLKKITNFFRGDRCRSLTGKPKLFIIQACRGTELDCGIETD
chain 2: SGVDDDMACHKIPVEADFLYAYSTAPGYYSWRNSKDGSWFIQSLCAMLKQYADKLEFMHILTRVNRKVATEFESFSFDATFHAKKQIPCIVSMLTKELYFYHHHHHHH
With B1, the “kcat/KM for DEVD-AMC hydrolysis” value in series [1] is “the kcat/KM value for the recombinant caspase-3 (1,200,000 M^-1sec^-1)”.

B2: recombinant murine caspase-1 (protein)
chain: NKEDGTFPGLTGTLKFCPLEKAQKLWKENPSEIYPIMNTTTRTRLALIICNTEFQHLSPRVGAQVDLREMKLLLEDLGYTVKVKENLTALEMVKEVKEFAACPEHKTSDSTFLVFMSHGIQEGICGTTYSNEVSDILKVDTIFQMMNTLKCPSLKDKPKVIIIQACRGEKQGVVLLKDSVRDSEEDFLTDAIFEDDGIKKAHIEKDFIAFCSSTPDNVSWRHPVRGSLFIESLIKHMKEYAWSCDLEDIFRKVRFSFEQPEFRLQMPTADRVTLTKRFYLFPGH
As for B2, in series [2], the “activation of DEVD-AMC hydrolysis activity in heavy membranes” value is given as “Treatment with recombinant caspase-1 causes a rapid, robust activation of the membrane caspase” and the “time course of activation of DEVD-AMC hydrolysis activity” value was “The lack of a detectable time lag in the time course plot”.

B3: affinity purified membrane derived caspase-3 from 697 cell heavy membranes (protein)
chain 1: KNLEPKIIHGSESMDSGISLDNSYKMDYPEMGLCIIINNKNFHKSTGMTSRSGTDVDAANLRETFRNLKYEVRNKNDLTREEIVELMRDVSKEDHSKRSSFVCVLLSHGEEGIIFGTNGPVDLKKITNFFRGDRCRSLTGKPKLFIIQACRGTELDCGIETD
chain 2: SGVDDDMACHKIPVDADFLYAYSTAPGYYSWRNSKDGSWFIQSLCAMLKQYADKLEFMHILTRVNRKVATEFESFSFDATFHAKKQIPCIVSMLTKELYFYH
As to B3, in series [1], the “KM for DEVD-AMC hydrolysis” value is recorded as “The observed KM value for the purified caspase (10 uM)” and the “kcat/KM for DEVD-AMC hydrolysis” value is reported as “must be >=400,000 M^-1sec^-1”.
